Measurements taken from the supplement of paper PMC7877785.
± gives the uncertainty stated by the source.

Assay: self-splicing fitness, log relative to wild type (ln ratio); higher = more splicing; Tetrahymena group I intron in knt gene, E. coli kanamycin selection, DiMSum; sequences stand for … in CUCUCU…GGAGGGAAAAGUUAUCAGGCAUGCACCUGGUAGCUAGUCUUUAAACCAAUAGAUUGCAUCGGUUUAAAAGGCAAGACCGUCAAAUUGCGGGAAAGGGGUCAACAGCCGUUCAGUACCAAGUCUCAGGGGAAACUUUGAGAUGGCCUUGCAAAGGGUAUGGUAAUAAGCUGACGGACAUGGUCCUAACCACGCAGCCAAGUCCUAAGUCAACAGAUCUUCUGUUGAUAUGGAUGCAGUUCACAGACUAAAUGUCGGUCGGGGAAGAUGUAUUCUUCUCAUAAGAUAUAGUCGGACCUCUCCUUAAUGGGAGCUAGCGGAUGAAGUGAUGCAACACUGGAGCCGCUGGGAACUAAUUUGUAUGCGAAAGUAUAUUGAUUAGUUUUGGAGUACUCGUGGUCG
How it was run: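 DiMSum derived fitness as the error-weighted combination of fold changes across replicates, kanamycin versus no kanamycin, normalised to wild type. E. coli BL21(DE3) held the library, which randomised all eight P1ex-region intron nucleotides within the knt kanamycin-resistance gene on pET-22b(+). Six replicate transformations grew overnight at 37°C or 30°C on LB agar with or without 25 μg/mL kanamycin, also containing 100 μg/mL carbenicillin, 50 μM IPTG and 0.2% rhamnose, and pooled colonies were amplicon-sequenced on an Illumina HiSeq 2500.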

Sequence | self-splicing fitness (ln) (30 °C) | self-splicing fitness (ln) (37 °C)
CUCAAGCAAUAUUACGUUUU | -3.35 ± 0.14 | -2.34 ± 0.18
CUCCAGCAAUAUUACGAAAC | -3.94 ± 0.32 | -2.44 ± 0.26
CUCCAGCAAUAUUACGAACA | -3.95 ± 0.43 | -2.23 ± 0.21
CUCCAGCAAUAUUACGAACG | -1.6 ± 0.15 | -0.22 ± 0.15
CUCCAGCAAUAUUACGACCA | – | -1.37 ± 0.41
CUCCAGCAAUAUUACGACUA | -2.47 ± 0.21 | -2.53 ± 0.29
CUCCAGCAAUAUUACGAGCC | -2.73 ± 0.22 | -2.15 ± 0.28
CUCCAGCAAUAUUACGAGUU | -2.87 ± 0.17 | -2.66 ± 0.29
CUCCAGCAAUAUUACGAUGC | -2.81 ± 0.25 | -2.95 ± 0.32
CUCCAGCAAUAUUACGCAAU | -4.47 ± 0.41 | -2.43 ± 0.2
CUCCAGCAAUAUUACGCCUG | -3.25 ± 0.21 | -2.71 ± 0.27
CUCCAGCAAUAUUACGCGUU | -3.65 ± 0.17 | -2.01 ± 0.14
CUCCAGCAAUAUUACGCUCC | -2.73 ± 0.3 | –
CUCCAGCAAUAUUACGCUUC | -3.31 ± 0.24 | -2.27 ± 0.23
CUCCAGCAAUAUUACGUAUU | -4.45 ± 0.15 | -3.21 ± 0.18
CUCCAGCAAUAUUACGUGCU | -3.06 ± 0.11 | -2.58 ± 0.14
CUCCAGCAAUAUUACGUGGC | -3.82 ± 0.15 | -3.4 ± 0.24
CUCCAGCAAUAUUACGUUAU | -3.58 ± 0.22 | -3.38 ± 0.28
CUCGAGCAAUAUUACGCAGG | -3.62 ± 0.3 | -2.36 ± 0.25
CUCGAGCAAUAUUACGCCAA | -3.29 ± 0.41 | -2.04 ± 0.46
CUCGAGCAAUAUUACGCGCA | -2.79 ± 0.48 | –
CUCGAGCAAUAUUACGCUCA | -1.96 ± 0.27 | -2.15 ± 0.45
CUCGAGCAAUAUUACGCUGA | -2.4 ± 0.43 | -0.491 ± 0.3
CUCGAGCAAUAUUACGCUUU | -4.13 ± 0.46 | -2.31 ± 0.31
CUCGAGCAAUAUUACGGAAA | -2.9 ± 0.28 | -1.37 ± 0.16

Sequence | self-splicing fitness (ln) (30 °C) | self-splicing fitness (ln) (37 °C)
CUCGAGCAAUAUUACGGAAC | -3.24 ± 0.24 | -1.98 ± 0.25
CUCGAGCAAUAUUACGGAGC | -3.66 ± 0.26 | -3.22 ± 0.3
CUCGAGCAAUAUUACGGGAU | -3.84 ± 0.36 | -1.93 ± 0.3
CUCGAGCAAUAUUACGGGCA | -2.35 ± 0.36 | 0.194 ± 0.26
CUCGAGCAAUAUUACGGUAU | -2.54 ± 0.14 | -2.62 ± 0.21
CUCGAGCAAUAUUACGGUUU | -3.87 ± 0.27 | –
CUCGAGCAAUAUUACGUACG | -3.49 ± 0.22 | -2.86 ± 0.28
CUCGAGCAAUAUUACGUCCU | -2.54 ± 0.24 | -2.55 ± 0.48
CUCGAGCAAUAUUACGUCUG | -2.84 ± 0.19 | -1.2 ± 0.18
CUCGAGCAAUAUUACGUGAG | -2.41 ± 0.17 | -2.32 ± 0.23
CUCGAGCAAUAUUACGUGCG | -3.08 ± 0.2 | -2.91 ± 0.17
CUCUAGCAAUAUUACGAAAG | -2.34 ± 0.2 | -2.11 ± 0.34
CUCUAGCAAUAUUACGACAA | – | -2.35 ± 0.28
CUCUAGCAAUAUUACGAUAU | -3.45 ± 0.24 | -3.2 ± 0.25
CUCUAGCAAUAUUACGAUCU | – | -1.9 ± 0.3
CUCUAGCAAUAUUACGCAGA | -4.08 ± 0.31 | -3.59 ± 0.22
CUCUAGCAAUAUUACGCGUU | – | -2.14 ± 0.18
CUCUAGCAAUAUUACGCUGG | -3.13 ± 0.23 | -1.51 ± 0.32
CUCUAGCAAUAUUACGGCAA | -2.38 ± 0.2 | –
CUCUAGCAAUAUUACGGCGC | -2.53 ± 0.28 | -3.04 ± 0.43
CUCUAGCAAUAUUACGGCUG | -2.87 ± 0.24 | -2.31 ± 0.25
CUCUAGCAAUAUUACGUAUA | -2.7 ± 0.3 | -2.84 ± 0.25
CUCUAGCAAUAUUACGUAUU | -2.14 ± 0.13 | -3.57 ± 0.25
CUCUAGCAAUAUUACGUCUC | -3.06 ± 0.23 | -1.81 ± 0.29
CUCUAGCAAUAUUACGUUCU | -3.1 ± 0.15 | -3.47 ± 0.22

Sequence | self-splicing fitness (ln) (30 °C) | self-splicing fitness (ln) (37 °C)
CUGAAGCAAUAUUACGAAUA | -2.41 ± 0.48 | -2.22 ± 0.43
CUGAAGCAAUAUUACGAAUU | -3.24 ± 0.12 | -1.86 ± 0.14
CUGAAGCAAUAUUACGACCG | 0.3 ± 0.15 | 0.854 ± 0.17
CUGAAGCAAUAUUACGACGC | -3.78 ± 0.35 | –
CUGAAGCAAUAUUACGACUU | -3.13 ± 0.35 | -1.75 ± 0.3
CUGAAGCAAUAUUACGAUUA | -2.6 ± 0.2 | -2.84 ± 0.29
CUGAAGCAAUAUUACGAUUC | -3.13 ± 0.23 | -2.5 ± 0.29
CUGAAGCAAUAUUACGCCAA | -3.31 ± 0.41 | –
CUGAAGCAAUAUUACGCCUA | -3.82 ± 0.24 | -3.63 ± 0.33
CUGAAGCAAUAUUACGCUGC | -2.12 ± 0.34 | –
CUGAAGCAAUAUUACGGAAC | – | -2.55 ± 0.3
CUGAAGCAAUAUUACGGAAG | -1.37 ± 0.096 | -0.636 ± 0.12
CUGAAGCAAUAUUACGGACA | -1.79 ± 0.14 | -2.22 ± 0.27
CUGAAGCAAUAUUACGGAUU | -4.16 ± 0.17 | -3.01 ± 0.26
CUGAAGCAAUAUUACGGCUU | -4 ± 0.34 | -2.84 ± 0.26
CUGAAGCAAUAUUACGUAAA | -2.54 ± 0.33 | -1.7 ± 0.46
CUGAAGCAAUAUUACGUCAC | -2.03 ± 0.11 | -2.73 ± 0.24
CUGAAGCAAUAUUACGUGAU | -2.7 ± 0.12 | -1.07 ± 0.15
CUGCAGCAAUAUUACGAACU | -2.75 ± 0.3 | -2.34 ± 0.33
CUGCAGCAAUAUUACGACGG | -2.75 ± 0.17 | -0.0134 ± 0.14
CUGCAGCAAUAUUACGAGCG | -0.799 ± 0.093 | 0.667 ± 0.11
CUGCAGCAAUAUUACGAGGG | -4.19 ± 0.24 | -1.95 ± 0.17
CUGCAGCAAUAUUACGCAAU | -3.55 ± 0.25 | -2.77 ± 0.21
CUGCAGCAAUAUUACGCCCA | – | -1.31 ± 0.49
CUGCAGCAAUAUUACGCUUG | -3.55 ± 0.2 | -2.25 ± 0.22

Sequence | self-splicing fitness (ln) (30 °C) | self-splicing fitness (ln) (37 °C)
CUGCAGCAAUAUUACGCUUU | -4.46 ± 0.28 | -2.6 ± 0.26
CUGCAGCAAUAUUACGGACU | -3.58 ± 0.21 | -1.33 ± 0.15
CUGCAGCAAUAUUACGGGCG | -1.3 ± 0.059 | -0.522 ± 0.073
CUGCAGCAAUAUUACGGGGA | -2.72 ± 0.19 | -2.22 ± 0.18
CUGCAGCAAUAUUACGGUAA | -2.7 ± 0.16 | -1.76 ± 0.14
CUGCAGCAAUAUUACGGUAU | -4.53 ± 0.25 | -2.85 ± 0.19
CUGCAGCAAUAUUACGGUGA | -2.37 ± 0.12 | -0.923 ± 0.099
CUGCAGCAAUAUUACGGUUU | -3.11 ± 0.13 | -1.43 ± 0.12
CUGCAGCAAUAUUACGUAAA | -3.28 ± 0.14 | -1.19 ± 0.14
CUGCAGCAAUAUUACGUAAC | -3.31 ± 0.26 | -2.38 ± 0.29
CUGCAGCAAUAUUACGUACA | -2.96 ± 0.29 | -1.43 ± 0.19
CUGCAGCAAUAUUACGUGGU | -3.34 ± 0.18 | -3.71 ± 0.31
CUGGAGCAAUAUUACGAAGU | -2.22 ± 0.37 | -2.38 ± 0.43
CUGGAGCAAUAUUACGAGCA | -2.32 ± 0.46 | -2.63 ± 0.42
CUGGAGCAAUAUUACGAGGC | -2.02 ± 0.4 | -0.672 ± 0.47
CUGGAGCAAUAUUACGAGGG | -2.67 ± 0.24 | -2.08 ± 0.34
CUGGAGCAAUAUUACGAUUA | -2.56 ± 0.27 | -1.07 ± 0.26
CUGGAGCAAUAUUACGCAGG | -3.11 ± 0.23 | -2.36 ± 0.2
CUGGAGCAAUAUUACGCCUC | – | -1.07 ± 0.47
CUGGAGCAAUAUUACGCGAG | -3.24 ± 0.23 | -2.47 ± 0.26
CUGGAGCAAUAUUACGCGCU | -3.54 ± 0.47 | –
CUGGAGCAAUAUUACGCGUG | -3.27 ± 0.15 | 0.32 ± 0.12
CUGGAGCAAUAUUACGCUGU | – | -3.04 ± 0.48
CUGGAGCAAUAUUACGGAGG | – | -2.18 ± 0.36
CUGGAGCAAUAUUACGGCAG | -2.77 ± 0.15 | -1.94 ± 0.16
